Measurements taken from patent publication US20250145722A1, “ANTI-GAL3 ANTIBODIES AND METHODS OF USE” (TrueBinding, Inc., priority 2020, published 2025).

Experiments:
[1] = biological target: human Galectin-3 (Gal3), full-length recombinant (human) (UniProt P17931); experiment: blocking ELISA, Gal3 coated, biotin-Tau aggregates
[2] = biological target: human Galectin-3 (Gal3), full-length recombinant (human) (UniProt P17931); experiment: blocking ELISA, Gal3 coated, biotin-Abeta42 oligomer
[3] = biological target: human Galectin-3 (Gal3), full-length recombinant (human) (UniProt P17931); experiment: blocking ELISA, Gal3 coated, biotin-α-synuclein aggregates
[4] = biological target: human Galectin-3 (Gal3), full-length recombinant (human) (UniProt P17931); experiment: blocking ELISA, Gal3 coated, biotin-APP695
[5] = biological target: human Galectin-3 (Gal3), full-length recombinant (human) (UniProt P17931); experiment: blocking ELISA, Gal3 coated, biotin-Abeta42 peptide
[6] = biological target: cynomolgus Gal3 (cynomolgus); experiment: not stated (FIG. 50)
[7] = biological target: human Galectin-3 (Gal3), full-length recombinant (human) (UniProt P17931); experiment: blocking ELISA, Gal3 coated, PDGFR alpha-Fc, antibody 20 µg/ml
[8] = biological target: human Galectin-3 (Gal3), full-length recombinant (human) (UniProt P17931); experiment: blocking ELISA, Gal3 coated, biotin-TLR4
[9] = biological target: human Galectin-3 (Gal3), full-length recombinant (human) (UniProt P17931); experiment: blocking ELISA, Gal3 coated, VEGFR3-Fc, antibody 20 µg/ml
[10] = biological target: human Galectin-3 (Gal3), full-length recombinant (human) (UniProt P17931); experiment: blocking ELISA, Gal3 coated, EGFR-Fc, antibody 20 µg/ml
[11] = biological target: human Galectin-3 (Gal3), full-length recombinant (human) (UniProt P17931); experiment: blocking ELISA, Gal3 coated, PDGFR beta-Fc, antibody 20 µg/ml
[12] = biological target: human Galectin-3 (Gal3), full-length recombinant (human) (UniProt P17931); experiment: blocking ELISA, Gal3 coated, TREM2-His

Sequence of human Galectin-3 (Gal3), full-length recombinant (human) (P17931 2-250 limits assumed): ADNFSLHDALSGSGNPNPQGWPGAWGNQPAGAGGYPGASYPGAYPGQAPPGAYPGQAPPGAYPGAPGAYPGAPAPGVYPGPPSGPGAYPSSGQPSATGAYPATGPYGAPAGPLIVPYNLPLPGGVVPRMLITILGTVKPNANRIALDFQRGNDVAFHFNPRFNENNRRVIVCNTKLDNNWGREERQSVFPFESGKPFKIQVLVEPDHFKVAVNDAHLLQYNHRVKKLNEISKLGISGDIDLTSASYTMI

% blocking of Gal3-Tau aggregates binding [1] [%] | % blocking of Gal3-APP695 binding [4] [%] | Kd [6] [nM] | % blocking of Gal3-TLR4 binding [8] [%] | % blocking of Gal3-TREM2 binding [12] [%] | Binder | further results
< 50 | > 86 | – | – | – | 12G5.D7 (antibody, from a related filing, V domains shown) VH: QVQLKQSGAELVRPGASVKLSCKASGYTFTDYYINWVKQRPGQGLEWIARIYPGTGNTDYNEKFKGRATLTAEKSSSTAYMQLSSLTSEDSAVYFCARFAYYYGSGGYFDYWGHGTTLTVSS VL: DILMTQSPSSMSVSLGDTVSITCHASQGINSNMGWLQQKPGKSFKGLIYHATNLEDGVPSRFSGSGSGADYSLTISSLESEDFADYYCVQYAQFPPTFGSGTKLEIK | % blocking of Gal3-Abeta42 oligomer binding [2]: < 26%; % blocking of Gal3-α-synuclein aggregates binding [3]: < 50%; % blocking of Gal3-Abeta42 peptide binding [5]: < 46%
– | – | 8.9 | – | – | TB001 (antibody, IgG4, V domains shown) VH: QVQLVQSGSELKKPGASVKVSCKASGYTFTNYGMNWVRQAPGQGLKWMGWINTNTGEPTYVEEFTGRFVFSLETSVSTAYLQISSLKAEDTAVYFCAPYDNFFAYWGQGTTVTVSS VL: DIVLTQSPLSLPVTPGEPASISCRSSKSLLYKDGKTYLNWFLQKPGQSPQLLIYLMSTHASGVPDRFSGSGSGTDFTLKISRVEAEDVGVYYCQQLVDYPLTFGGGTKLEIKR | –
– | – | 5.1 | – | – | TB006 (antibody, V domains shown) VH: QVQLVQSGAEVKKPGASVKVSCKASGYSFTNYYMHWVRQAPGQRLEWMGWIYPGSGNTNYNEKFQGRVTITADTSASTAYMELSSLRSEDTAVYYCSTAPGGFDVWGQGTTVTVSS VL: DIVMTQTPLSLSVTPGQPASISCKSSKSLLHSDGITYLYWYLQKPGQSPQLLIYRMSNLASGVPDRFSGSGSGTDFTLKISRVEAEDVGVYYCAQMLEFPLTFGQGTKLEIKR | –
– | > 90 | – | > 90 | > 90 | 7D8.2D8 (antibody, mouse IgG2a, V domains shown) VH: EVQLVESGGGLVKPGGSLKLSCAASGFTFSSYAMSWVRQTPEKRLEWVATISDGGIYTYYPDNVKGRFTISRDNAKNNLFLQMSHLKSEDTAMYYCVRDGGYWGQGTTLTVSS VL: DVLMTQTPLSLPVSLGDQASISCRSSQSIVHSNGNTYLEWYLQKPGQSPKLLIYKVSNRFSGVPDRFSGSGSGTDFTLKISRVEAEDLGVYYCFQGSHVPLTFGAGTKLELKR | % blocking of Gal3-PDGFR alpha binding [7]: < 30%; % blocking of Gal3-VEGFR3 binding [9]: < 30%; % blocking of Gal3-EGFR binding [10]: < 30%; % blocking of Gal3-PDGFR beta binding [11]: < 30%
< 50 | > 90 | – | > 90 | > 90 | 15F10.2D6 (antibody, mouse IgG2a, V domains shown) VH: EVQLVESGGGLVKPGGSLKLSCAASGFAFSSYAMSWVRQTPEKRLEWVATISDGGVYTYYTDHVKGRFTISRDNAEDNLYLQMSHLKSEDTAMYYCVRDGGYWGQGTTLTVSS VL: DVLMTQTPLSLPVSLGDQASISCRSSQSIVHNNGNTYLEWYLQKPGQSPKLLIYKVSNRFSGVPDRFSGSGSGTDFTLKISRVEAEDLGVYYCFQGSHVPLTFGGGTKLELKR | –
